# Laboratory results: patent US12421510B2, “Peptide, a complex and a method for treating cancer” (TECHNION RESEARCH & DEVELOPMENT FOUNDATION LIMITED, priority 2018, dated 2025)
# T1: p105 (Homo sapiens, UniProt P19838)
# T1 sequence (P19838 1-968): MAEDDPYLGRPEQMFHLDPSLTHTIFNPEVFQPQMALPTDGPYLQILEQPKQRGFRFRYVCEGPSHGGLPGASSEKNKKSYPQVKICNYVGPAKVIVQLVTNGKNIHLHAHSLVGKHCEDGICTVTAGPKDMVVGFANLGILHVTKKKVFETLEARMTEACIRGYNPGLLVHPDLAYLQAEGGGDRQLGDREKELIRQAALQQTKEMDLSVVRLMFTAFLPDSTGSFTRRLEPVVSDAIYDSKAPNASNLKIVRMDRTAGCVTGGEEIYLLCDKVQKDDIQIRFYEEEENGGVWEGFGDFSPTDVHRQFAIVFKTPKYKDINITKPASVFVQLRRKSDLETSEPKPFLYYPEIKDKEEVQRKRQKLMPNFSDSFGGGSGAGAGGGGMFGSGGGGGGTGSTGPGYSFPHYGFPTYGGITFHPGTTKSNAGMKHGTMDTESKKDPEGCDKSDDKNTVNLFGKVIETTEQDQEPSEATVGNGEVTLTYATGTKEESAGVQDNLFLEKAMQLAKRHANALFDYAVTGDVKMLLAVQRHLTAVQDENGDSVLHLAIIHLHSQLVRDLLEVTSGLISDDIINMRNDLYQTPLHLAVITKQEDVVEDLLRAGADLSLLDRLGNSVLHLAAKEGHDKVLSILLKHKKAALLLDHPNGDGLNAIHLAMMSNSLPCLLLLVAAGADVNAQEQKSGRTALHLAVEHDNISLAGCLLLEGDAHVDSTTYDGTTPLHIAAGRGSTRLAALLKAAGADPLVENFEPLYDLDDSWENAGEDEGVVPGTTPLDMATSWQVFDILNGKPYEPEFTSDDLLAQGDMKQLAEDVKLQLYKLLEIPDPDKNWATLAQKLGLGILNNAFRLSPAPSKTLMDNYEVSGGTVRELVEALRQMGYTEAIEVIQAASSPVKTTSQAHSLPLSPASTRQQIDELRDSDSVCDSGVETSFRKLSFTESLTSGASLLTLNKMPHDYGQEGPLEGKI
# Biological target: T1, p105
# Test: Co-immunoprecipitation (Co-IP) of KPC1 species with p105-HA from transfected HEK293T cells
# Assay type: binding
# Design: HA; expressed in transfected cells; host or cells: HEK293T
# Conditions: anti-FLAG immunoprecipitation, anti-NF-κB1 western blot
# Description: FIG. 1B is a western blot showing the following: HEK293T cells were transfected with cDNAs coding for p105-HA (lanes 1-6), along with the different KPC1 species as following: W.T KPC1 (lane 1), KPC1Δ969-1314 (lane 2), KPC1Δ1-438 & 1039-1314 (lane 3), KPC1Δ1-967 (lane 4) and KPC1Δ1-1042 (lane 5). Lane 6 was transfected with an empty vector. KPC1 species were immunoprecipitated using immobilized FLAG antibodies, resolved by SDS-page, and NF-κB1 and KPC1 proteins were visualized by anti-NF-κB1 (FIG. 1B (upper)) and anti-FLAG (FIG. 1B (bottom)) antibodies, respectively. 10% of the total cell lysate was analyzed for the expression of p105-HA.
# FIG. 2B is a western blot. HEK293T cells were transfected with cDNAs coding for p105-HA (lanes 1-7), along with different KPC1 species as following: WT KPC1 (lane 1), KPC1Δ1-967 (lane 2), KPC1Δ967-1043 (lane 3), KPC1Δ1-973 (lane 4), KPC1Δ1-1017 (lane 5) and KPC1ΔCC domain (lane 6). Lane 7 represents cells that were transfected with empty vector. KPC1 species were immunoprecipitated using immobilized FLAG antibodies, resolved by SDS-page. NF-κB1 and KPC1 proteins were visualized with anti-NF-κB1 (FIG. 2B (i)) and anti-FLAG (FIG. 2B (ii)) antibodies, respectively. 10% of the total cell lysate was analyzed for the expression of p105-HA. FIGS. 3A and 3B: FIG. 3A is a schematic representation of KPC1 species used in the experiment shown in FIG. 3B that was directed to evaluating the region of KPC1 that is responsible for the interaction with p105.
# FIG. 3B is a western blot. HEK293T cells were transfected with cDNAs coding for p105-HA (lanes 1-12), along with different KPC1 species as following: KPC1-FLAG (lane 1), WILVRLW-KPC1 Δ 1-1253 (SEQ ID NO: 8) (lane 2), ILVRLW-KPC1 Δ 1-1253 (SEQ ID NO: 10) (lane 3), LVRLW-KPC1 Δ 1-1253 (SEQ ID NO: 11) (lane 4), VRLW-KPC1 Δ 1-1253 (lane 5) (SEQ ID NO: 12), RLW-KPC1 Δ 1-1253 (lane 6) SEQ ID NO:13), KPC1 Δ 1-1253 (lane 7), WILVRL-KPC1 Δ 1-1253 (lane 8) (SEQ ID NO: 14), WILVR-KPC1 Δ 1-1253 (SEQ ID NO: 15) (lane 9), WILV-KPC1 Δ 1-1253 (SEQ ID NO: 16) (lane 10), WIL-KPC1 Δ 1-1253 (SEQ ID NO: 17 (lane 11). Lane 12 represents cells that were transfected with empty vector. KPC1 species were immunoprecipitated using immobilized FLAG antibodies, resolved by SDS-page. NF-κB1 and KPC1 proteins were visualized by anti-NF-κB1 (FIG. 3B, (i, ii) and anti-FLAG (FIG. 3B, (iii) antibodies, respectively. 10% of the total cell lysate was analyzed for the expression of p105-HA (FIG. 3B, (ii)).
# HEK293T cells were transiently transfected with the various KPC1 species along with p105-HA using the j etPEI reagent. 48 hours after transfection, the cells were harvested and lysed with RIPA buffer [150 mM NaCl, 0.5% sodium deoxycholate, 50 mM Tris-HCl (pH 8.0), 0.1% SDS, and 1% NP-40, supplemented with freshly added protease inhibitors mixture]. KPC1 species proteins were immunoprecipitated with immobilized anti-FLAG, with subsequent washing of the beads five times with RIPA buffer. The immunoprecipitated proteins were resolved by SDS-PAGE (10%, FIGS. 1A, 1B, 2A and 2B, with a gel gradient, of 4-20%; FIGS. 3A and 3B), and blotted onto nitrocellulose (FIGS. 1A, 1B, 2A and 2B) or PVDF (FIGS. 3A and 3B) membranes. p105 and KPC1 species were visualized using anti-NF-κB1 or anti-FLAG antibodies, respectively.
# Identification of the region of KPC1 that is responsible for the interaction with p105. In order to identify the region of KPC1 that is responsible for the interaction with p105, several truncated segments of the DNA sequence of the KPC1 protein were cloned. The truncated segments were inserted into the pCAGGS expression vector to analyze their interaction with p105 by co-immunoprecipitation (Co-IP) from cells. HEK 293T cells were transfected with cDNAs coding for p105-HA, along with different fragments of KPC1 (FIG. 1A). Species of KPC1 were immunoprecipitated using an immobilized anti-Flag antibody. […]
row,Molecule,interaction with p105 (Co-IP)
1,"KPC1Δ1-973: KPC1 species that lacks the amino acids 1-973 (protein, UniProt Q5XPI4 974-1314, looked up, fragment) WRGCGFGYRYTRLPHLLKTKLEDANLPSLQKPCPSTLLQQHMADLLQQGPDVAPSFLNSVLNQLNWAFSEFIGMIQEIQQAAERLERNFVDSRQLKVCATCFDLSVSLLRVLEMTITLVPEIFLDWTRPTSEMLLRRLAQLLNQVLNRVTAERNLFDRVVTLRLPGLESVDHYPILVAVTGILVQLLVRGPASEREQATSVLLADPCFQLRSICYLLGQPEPPAPGTALPAPDRKRFSLQSYADYISADELAQVEQMLAHLTSASAQAAAASLPTSEEDLCPICYAHPISAVFQPCGHKSCKACINQHLMNNKDCFFCKTTIVSVEDWEKGANTSTTSSAA",the interaction between these two proteins was abrogated
2,"KPC1Δ1-1017: KPC1 species that lacks the amino acids 1-1017 (protein, UniProt Q5XPI4 1018-1314, looked up, fragment) LLQQGPDVAPSFLNSVLNQLNWAFSEFIGMIQEIQQAAERLERNFVDSRQLKVCATCFDLSVSLLRVLEMTITLVPEIFLDWTRPTSEMLLRRLAQLLNQVLNRVTAERNLFDRVVTLRLPGLESVDHYPILVAVTGILVQLLVRGPASEREQATSVLLADPCFQLRSICYLLGQPEPPAPGTALPAPDRKRFSLQSYADYISADELAQVEQMLAHLTSASAQAAAASLPTSEEDLCPICYAHPISAVFQPCGHKSCKACINQHLMNNKDCFFCKTTIVSVEDWEKGANTSTTSSAA",did not interact with p105
3,"KPC1Δ1-967: KPC1 species that lacks amino acids 1-967, SEQ ID NO: 5 (protein) WILVRLWRGCGFGYRYTRLPHLLKTKLEDANLPSLQKPCPSTLLQQHMADLLQQGPDVAPSFLNSVLNQLNWAFSEFIGMIQEIQQAAERLERNFVDSRQLKVCATCFDLSVSLLRVLEMTITLVPEIFLDWTRPTSEMLLRRLAQLLNQVLNRVTAERNLFDRVVTLRLPGLESVDHYPILVAVTGILVQLLVRGPASEREQATSVLLADPCFQLRSICYLLGQPEPPAPGTALPAPDRKRFSLQSYADYISADELAQVEQMLAHLTSASAQAAAASLPTSEEDLCPICYAHPISAVFQPCGHKSCKACINQHLMNNKDCFFCKTTIVSVEDWEKGANTSTTSSAA",an interaction was observed

# Continued, values first:
row,interaction with p105 (Co-IP),Molecule
1,An interaction was observed,"WILVRLW-KPC1Δ1-1253: KPC1 lacking amino acids 1-1253 with WILVRLW at its N-terminus, SEQ ID NO: 8 (protein) WILVRLWCPICYAHPISAVFQPCGHKSCKACINQHLMNNKDCFFCKTTIVSVEDWEKGANTSTTSSAA"
2,An interaction,KPC1ΔCC: KPC1 species that lacks the amino acids 1041-1061 (coiled coil domain) (protein) MASKGAGMSFSRKSYRLTSDAEKSRVTGIVQEKLLNDYLNRIFSSSEHAPPAATSRKPLNFQNLPEHLDQLLQVDNEEEESQGQVEGRLGPSTVVLDHTGGFEGLLLVDDDLLGVIGHSNFGTIRSTTCVYKGKWLYEVLISSQGLMQIGWCTISCRFNQEEGVGDTHNSYAYDGNRVRKWNVTTTNYGKAWAAGDIVSCLIDLDDGTLSFCLNGVSLGTAFENLSRGLGMAYFPAISLSFKESVAFNFGSRPLRYPVAGYRPLQDPPSADLVRAQRLLGCFRAVLSVELDPVEGRLLDKESSKWRLRGQPTVLLTLAHIFHHFAPLLRKVYLVEAVLMSFLLGIVEKGTPTQAQSVVHQVLDLLWLFMEDYEVQDCLKQLMMSLLRLYRFSPIVPDLGLQIHYLRLTIAILRHEKSRKFLLSNVLFDVLRSVVFFYIKSPLRVEEAGLQELIPTTWWPHCSSREGKESTEMKEETAEERLRRRAYERGCQRLRKRIEVVEELQVQILKLLLDNKDDNGGEASRYIFLTKFRKFLQENASGRGNMPMLCPPEYMVCFLHRLISALRYYWDEYKASNPHASFSEEAYIPPQVFYNGKVDYFDLQRLGGLLSHLRKTLKDDLASKANIVIDPLELQSTAMDDLDEDEEPAPAMAQRPMQALAVGGPLPLPRPGWLSSPTLGRANRFLSTAAVSLMTPRRPLSTSEKVKVRTLSVEQRTREDIEGSHWNEGLLLGRPPEEPEQPLTENSLLEVLDGAVMMYNLSVHQQLGKMVGVSDDVNEYAMALRDTEDKLRRCPKRRKDILAELTKSQKVFSEKLDHLSRRLAWVHATVYSQEKMLDIYWLLRVCLRTIEHGDRTGSLFAFMPEFYLSVAINSYSALKNYFGPVHSMEELPGYEETLTRLAAILAKHFADARIVGTDIRDSLMQALASYVCYPHSLRAVERIPEEQRIAMVRNLLAPYEQRPWAQTNWILVRLWRGCGFGYRYTRLPHLLKTKLEDANLPSLQKPCPSTLLQQHMADLLQQGPDVAPSFLNSVLNQLNWAFVDSRQLKVCATCFDLSVSLLRVLEMTITLVPEIFLDWTRPTSEMLLRRLAQLLNQVLNRVTAERNLFDRVVTLRLPGLESVDHYPILVAVTGILVQLLVRGPASEREQATSVLLADPCFQLRSICYLLGQPEPPAPGTALPAPDRKRFSLQSYADYISADELAQVEQMLAHLTSASAQAAAASLPTSEEDLCPICYAHPISAVFQPCGHKSCKACINQHLMNNKDCFFCKTTIVSVEDWEKGANTSTTSSAA
